B1: Progranulin (Homo sapiens), P28799 (parent)
chain: MWTLVSWVALTAGLVAGTRCPDGQFCPVACCLDPGGASYSCCRPLLDKWPTTLSRHLGGPCQVDAHCSAGHSCIFTVSGTSSCCPFPEAVACGDGHHCCPRGFHCSADGRSCFQRSGNNSVGAIQCPDSQFECPDFSTCCVMVDGSWGCCPMPQASCCEDRVHCCPHGAFCDLVHTRCITPTGTHPLAKKLPAQRTNRAVALSSSVMCPDARSRCPDGSTCCELPSGKYGCCPMPNATCCSDHLHCCPQDTVCDLIQSKCLSKENATTDLLTKLPAHTVGDVKCDMEVSCPDGYTCCRLQSGAWGCCPFTQAVCCEDHIHCCPAGFTCDTQKGTCEQGPHQVPWMEKAPAHLSLPDPQALKRDVPCDNVSSCPSSDTCCQLTSGEWGCCPIPEAVCCSDHQHCCPQGYTCVAEGQCQRGSEIVAGLEKMPARRASLSHPRDIGCDQHTSCPVGQTCCPSLGGSWACCQLPHAVCCEDRQHCCPAGYTCNVKARSCEKEVVSAQPATFLARSPHVGVKDVECGEGHFCHDNQTCCRDNRQGWACCPYRQGVCCADRRHCCPAGFRCAARGTKCLRREAPRWDAPLRDPALRQLL
B2: U4/U6 small nuclear ribonucleoprotein Prp31 (Homo sapiens), Q8WWY3 (parent)
chain: MSLADELLADLEEAAEEEEGGSYGEEEEEPAIEDVQEETQLDLSGDSVKTIAKLWDSKMFAEIMMKIEEYISKQAKASEVMGPVEAAPEYRVIVDANNLTVEIENELNIIHKFIRDKYSKRFPELESLVPNALDYIRTVKELGNSLDKCKNNENLQQILTNATIMVVSVTASTTQGQQLSEEELERLEEACDMALELNASKHRIYEYVESRMSFIAPNLSIIIGASTAAKIMGVAGGLTNLSKMPACNIMLLGAQRKTLSGFSSTSVLPHTGYIYHSDIVQSLPPDLRRKAARLVAAKCTLAARVDSFHESTEGKVGYELKDEIERKFDKWQEPPPVKQVKPLPAPLDGQRKKRGGRRYRKMKERLGLTEIRKQANRMSFGEIEEDAYQEDLGFSLGHLGKSGSGRVRQTQVNEATKARISKTLQRTLQKQSVVYGGKSTIRDRSSGTASSVAFTPLQGLEIVNPQAAEKKVAEANQKYFSSMAEFLKVKGEKSGLMST
partner: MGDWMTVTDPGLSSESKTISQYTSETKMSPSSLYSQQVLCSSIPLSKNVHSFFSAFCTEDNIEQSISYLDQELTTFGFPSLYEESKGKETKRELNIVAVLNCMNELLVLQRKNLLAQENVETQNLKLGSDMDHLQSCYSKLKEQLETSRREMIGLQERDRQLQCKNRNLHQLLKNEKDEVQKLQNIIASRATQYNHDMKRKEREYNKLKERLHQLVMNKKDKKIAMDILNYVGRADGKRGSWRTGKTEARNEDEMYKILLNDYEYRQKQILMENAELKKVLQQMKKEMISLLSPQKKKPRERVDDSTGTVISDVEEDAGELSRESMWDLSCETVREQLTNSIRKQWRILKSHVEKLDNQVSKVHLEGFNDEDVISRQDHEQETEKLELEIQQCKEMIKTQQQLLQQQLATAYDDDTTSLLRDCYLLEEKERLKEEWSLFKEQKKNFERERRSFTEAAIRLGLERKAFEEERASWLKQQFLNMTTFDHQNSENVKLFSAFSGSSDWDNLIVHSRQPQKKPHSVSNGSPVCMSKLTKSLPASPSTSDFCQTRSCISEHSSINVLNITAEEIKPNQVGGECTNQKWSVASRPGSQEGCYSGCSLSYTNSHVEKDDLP
B3: Caspase-10 (Homo sapiens), Q92851-4 (parent)
chain: MKSQGQHWYSSSDKNCKVSFREKLLIIDSNLGVQDVENLKFLCIGLVPNKKLEKSSSASDVFEHLLAEDLLSEEDPFFLAELLYIIRQKKLLQHLNCTKEEVERLLPTRQRVSLFRNLLYELSEGIDSENLKDMIFLLKDSLPKTEMTSLSFLAFLEKQGKIDEDNLTCLEDLCKTVVPKLLRNIEKYKREKAIQIVTPPVDKEAESYQGEEELVSQTDVKTFLEALPQESWQNKHAGSNGNRATNGAPSLVSRGMQGASANTLNSETSTKRAAVYRMNRNHRGLCVIVNNHSFTSLKDRQGTHKDAEILSHVFQWLGFTVHIHNNVTKVEMEMVLQKQKCNPAHADGDCFVFCILTHGRFGAVYSSDEALIPIREIMSHFTALQCPRLAEKPKLFFIQACQGEEIQPSVSIEADALNPEQAPTSLQDSIPAEADFLLGLATVPGYVSFRHVEEGSWYIQSLCNHLKKLVPRHEDILSILTAVNDDVSRRVDKQGTKKQMPQPAFTLRKKLVFPVPLDALSL

Variants of: B1
Conditions: with hxa1_human HOXA1, P49639
Sequence of hxa1_human HOXA1, P49639 (P49639 whole entry): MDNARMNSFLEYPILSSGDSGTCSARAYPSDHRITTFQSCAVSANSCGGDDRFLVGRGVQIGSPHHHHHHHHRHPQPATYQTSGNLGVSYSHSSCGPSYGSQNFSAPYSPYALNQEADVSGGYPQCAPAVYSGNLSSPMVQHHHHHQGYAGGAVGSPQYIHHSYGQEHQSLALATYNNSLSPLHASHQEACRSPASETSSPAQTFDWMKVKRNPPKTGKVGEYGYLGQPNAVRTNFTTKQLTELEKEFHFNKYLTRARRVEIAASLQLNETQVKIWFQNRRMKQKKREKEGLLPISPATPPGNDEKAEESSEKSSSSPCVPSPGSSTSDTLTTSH

Row | effect of a mutation on the interaction | Variant
1 | with no effect | MWTLVSWVALTAGLVAGTRCPDGQFCPVACCLDPGGASYSCCRPLLDKWPTTLSRHLGGPCQVDAHCSAGHSCIFTVSGTSSCCPFPEAVACGDGHHCCPRGFHCSADGRSCFQRSGNNSVGAIQCPDSQFECPDFSTCCVMVDGSWGCCPMPQASCCEDRVHCCPHGAFCDLVHTRCITPTGTHPLAKKLPAQRTNRAVALSSSVMCPDARSRCPDGSTCCELPSGKYGCCPMPNATCCSDHLHCCPQDTVCDLIQSKCLSKENATTDLLTKLPAHTVGDVKCDMEVSCPDGYTCCRLQSGAWGCCPFTQAVCCEDHIHCCPAGFTCDTQKGTCEQGPHQVPWMEKAPAHLSLPDPQALKRDVPCDNVSSCPSSDTCCQLTSGEWGCCPIPEAVCCSDHQHCCPQGYTCVAEGQCQRGSEIVAGLEKMPARRASLSHPRDIGCDQHTSCLVGQTCCPSLGGSWACCQLPHAVCCEDRQHCCPAGYTCNVKARSCEKEVVSAQPATFLARSPHVGVKDVECGEGHFCHDNQTCCRDNRQGWACCPYRQGVCCADRRHCCPAGFRCAARGTKCLRREAPRWDAPLRDPALRQLL [P451L]

Variants of: B1
Conditions: with ARFGAP1, Q8N6T3-3
Sequence of ARFGAP1, Q8N6T3-3 (Q8N6T3 other isoform, or with tags, fused parts or gaps): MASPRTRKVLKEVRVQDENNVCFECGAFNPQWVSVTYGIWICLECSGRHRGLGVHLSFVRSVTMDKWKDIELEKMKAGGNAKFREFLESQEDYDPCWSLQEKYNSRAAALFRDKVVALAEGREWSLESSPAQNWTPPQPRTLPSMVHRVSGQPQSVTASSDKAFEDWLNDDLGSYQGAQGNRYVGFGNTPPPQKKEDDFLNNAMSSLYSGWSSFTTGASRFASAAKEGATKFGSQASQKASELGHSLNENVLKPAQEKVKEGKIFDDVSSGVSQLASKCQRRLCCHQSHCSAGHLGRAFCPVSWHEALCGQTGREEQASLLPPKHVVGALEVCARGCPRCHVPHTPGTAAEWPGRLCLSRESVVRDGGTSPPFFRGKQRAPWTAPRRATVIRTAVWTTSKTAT

Row | effect of a mutation on the interaction | Variant
2 | disrupting interaction strength | MWTLVSWVALTAGLVAGTRCPDGQFCPVACCLDPGGASYSCCRPLLDKWPTTLSRHLGGPCQVDAHCSAGHSCIFTVSGTSSCCPFPEAVACGDGHHCCPRGFHCSADGRSCFQRSGNNSVGAIQCPDSQFECPDFSTCCVMVDGSWGCCPMPQASCCEDRVHCCPHGAFCDLVHTRCITPTGTHPLAKKLPAQRTNRAVALSSSVMCPDARSRCPDGSTCCELPSGKYGCCPMPNATCCSDHLHCCPQDTVCDLIQSKCLSKENATTDLLTKLPAHTVGDVKCDMEVSCPDGYTCCRLQSGAWGCCPFTQAVCCEDHIHCCPAGFTCDTQKGTCEQGPHQVPWMEKAPAHLSLPDPQALKRDVPCDNVSSCPSSDTCCQLTSGEWGCCPIPEAVCCSDHQHCCPQGYTCVAEGQCQRGSEIVAGLEKMPARRASLSHPRDIGCDQHTSCLVGQTCCPSLGGSWACCQLPHAVCCEDRQHCCPAGYTCNVKARSCEKEVVSAQPATFLARSPHVGVKDVECGEGHFCHDNQTCCRDNRQGWACCPYRQGVCCADRRHCCPAGFRCAARGTKCLRREAPRWDAPLRDPALRQLL [P451L]

Variants of: B1
Conditions: with sgta_human SGTA

Row | effect of a mutation on the interaction | Variant
3 | with no effect | MWTLVSWVALTAGLVAGTRCPDGQFCPVACCLDPGGASYSCCRPLLDKWPTTLSRHLGGPCQVDAHCSAGHSCIFTVSGTSSCCPFPEAVACGDGHHCCPRGFHCSADGRSCFQRSGNNSVGAIQCPDSQFECPDFSTCCVMVDGSWGCCPMPQASCCEDRVHCCPHGAFCDLVHTRCITPTGTHPLAKKLPAQRTNRAVALSSSVMCPDARSRCPDGSTCCELPSGKYGCCPMPNATCCSDHLHCCPQDTVCDLIQSKCLSKENATTDLLTKLPAHTVGDVKCDMEVSCPDGYTCCRLQSGAWGCCPFTQAVCCEDHIHCCPAGFTCDTQKGTCEQGPHQVPWMEKAPAHLSLPDPQALKRDVPCDNVSSCPSSDTCCQLTSGEWGCCPIPEAVCCSDHQHCCPQGYTCVAEGQCQRGSEIVAGLEKMPARRASLSHPRDIGCDQHTSCLVGQTCCPSLGGSWACCQLPHAVCCEDRQHCCPAGYTCNVKARSCEKEVVSAQPATFLARSPHVGVKDVECGEGHFCHDNQTCCRDNRQGWACCPYRQGVCCADRRHCCPAGFRCAARGTKCLRREAPRWDAPLRDPALRQLL [P451L]

Variants of: B1
Conditions: with otx1_human OTX1, P32242
Sequence of otx1_human OTX1, P32242 (P32242 whole entry): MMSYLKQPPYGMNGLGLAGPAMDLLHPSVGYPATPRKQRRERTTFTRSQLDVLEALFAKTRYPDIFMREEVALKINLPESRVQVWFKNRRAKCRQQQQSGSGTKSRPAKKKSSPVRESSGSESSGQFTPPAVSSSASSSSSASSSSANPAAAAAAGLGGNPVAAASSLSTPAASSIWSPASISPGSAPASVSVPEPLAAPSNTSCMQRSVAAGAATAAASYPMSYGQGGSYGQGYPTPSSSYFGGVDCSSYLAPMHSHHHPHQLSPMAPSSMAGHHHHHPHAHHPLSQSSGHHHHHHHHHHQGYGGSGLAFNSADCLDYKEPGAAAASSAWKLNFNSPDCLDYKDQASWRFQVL

Row | effect of a mutation on the interaction | Variant
4 | with no effect | MWTLVSWVALTAGLVAGTRCPDGQFCPVACCLDPGGASYSCCRPLLDKWPTTLSRHLGGPCQVDAHCSAGHSCIFTVSGTSSCCPFPEAVACGDGHHCCPRGFHCSADGRSCFQRSGNNSVGAIQCPDSQFECPDFSTCCVMVDGSWGCCPMPQASCCEDRVHCCPHGAFCDLVHTRCITPTGTHPLAKKLPAQRTNRAVALSSSVMCPDARSRCPDGSTCCELPSGKYGCCPMPNATCCSDHLHCCPQDTVCDLIQSKCLSKENATTDLLTKLPAHTVGDVKCDMEVSCPDGYTCCRLQSGAWGCCPFTQAVCCEDHIHCCPAGFTCDTQKGTCEQGPHQVPWMEKAPAHLSLPDPQALKRDVPCDNVSSCPSSDTCCQLTSGEWGCCPIPEAVCCSDHQHCCPQGYTCVAEGQCQRGSEIVAGLEKMPARRASLSHPRDIGCDQHTSCLVGQTCCPSLGGSWACCQLPHAVCCEDRQHCCPAGYTCNVKARSCEKEVVSAQPATFLARSPHVGVKDVECGEGHFCHDNQTCCRDNRQGWACCPYRQGVCCADRRHCCPAGFRCAARGTKCLRREAPRWDAPLRDPALRQLL [P451L]

Variants of: B1
Conditions: with ccd33_human CCDC33, Q8N5R6
Sequence of ccd33_human CCDC33, Q8N5R6 (Q8N5R6 whole entry): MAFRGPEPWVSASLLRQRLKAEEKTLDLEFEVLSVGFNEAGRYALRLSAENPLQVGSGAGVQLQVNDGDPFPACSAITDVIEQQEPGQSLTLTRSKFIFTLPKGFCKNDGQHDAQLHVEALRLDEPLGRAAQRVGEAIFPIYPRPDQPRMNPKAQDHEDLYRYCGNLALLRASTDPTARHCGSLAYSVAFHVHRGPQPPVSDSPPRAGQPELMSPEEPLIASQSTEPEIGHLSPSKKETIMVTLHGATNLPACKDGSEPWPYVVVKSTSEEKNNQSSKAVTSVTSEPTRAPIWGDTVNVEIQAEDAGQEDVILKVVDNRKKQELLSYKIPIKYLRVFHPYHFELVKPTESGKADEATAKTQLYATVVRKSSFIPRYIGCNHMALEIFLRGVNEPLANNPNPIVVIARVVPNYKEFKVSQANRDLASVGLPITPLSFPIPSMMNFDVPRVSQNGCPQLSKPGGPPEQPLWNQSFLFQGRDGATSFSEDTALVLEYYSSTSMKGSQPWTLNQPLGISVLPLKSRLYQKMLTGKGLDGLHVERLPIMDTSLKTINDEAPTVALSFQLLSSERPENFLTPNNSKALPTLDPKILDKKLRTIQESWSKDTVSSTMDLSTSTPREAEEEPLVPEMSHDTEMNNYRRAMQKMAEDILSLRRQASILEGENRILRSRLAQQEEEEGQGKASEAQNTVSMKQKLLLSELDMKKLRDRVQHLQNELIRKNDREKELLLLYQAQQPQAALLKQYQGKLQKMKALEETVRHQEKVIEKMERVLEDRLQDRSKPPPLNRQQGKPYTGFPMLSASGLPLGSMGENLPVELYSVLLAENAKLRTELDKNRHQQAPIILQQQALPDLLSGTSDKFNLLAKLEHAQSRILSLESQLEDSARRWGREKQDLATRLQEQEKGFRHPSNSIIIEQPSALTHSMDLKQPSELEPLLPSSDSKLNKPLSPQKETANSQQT

Row | effect of a mutation on the interaction | Variant
5 | disrupting interaction strength | MWTLVSWVALTAGLVAGTRCPDGQFCPVACCLDPGGASYSCCRPLLDKWPTTLSRHLGGPCQVDAHCSAGHSCIFTVSGTSSCCPFPEAVACGDGHHCCPRGFHCSADGRSCFQRSGNNSVGAIQCPDSQFECPDFSTCCVMVDGSWGCCPMPQASCCEDRVHCCPHGAFCDLVHTRCITPTGTHPLAKKLPAQRTNRAVALSSSVMCPDARSRCPDGSTCCELPSGKYGCCPMPNATCCSDHLHCCPQDTVCDLIQSKCLSKENATTDLLTKLPAHTVGDVKCDMEVSCPDGYTCCRLQSGAWGCCPFTQAVCCEDHIHCCPAGFTCDTQKGTCEQGPHQVPWMEKAPAHLSLPDPQALKRDVPCDNVSSCPSSDTCCQLTSGEWGCCPIPEAVCCSDHQHCCPQGYTCVAEGQCQRGSEIVAGLEKMPARRASLSHPRDIGCDQHTSCLVGQTCCPSLGGSWACCQLPHAVCCEDRQHCCPAGYTCNVKARSCEKEVVSAQPATFLARSPHVGVKDVECGEGHFCHDNQTCCRDNRQGWACCPYRQGVCCADRRHCCPAGFRCAARGTKCLRREAPRWDAPLRDPALRQLL [P451L]

Variants of: B2
Conditions: with adip_human SSX2IP

Row | effect of a mutation on the interaction | Variant
6 | with no effect | MSLADELLADLEEAAEEEEGGSYGEEEEEPAIEDVQEETQLDLSGDSVKTIAKLWDSKMFAEIMMKIEEYISKQAKASEVMGPVEAAPEYRVIVDANNLTVEIENEVNIIHKFIRDKYSKRFPELESLVPNALDYIRTVKELGNSLDKCKNNENLQQILTNATIMVVSVTASTTQGQQLSEEELERLEEACDMALELNASKHRIYEYVESRMSFIAPNLSIIIGASTAAKIMGVAGGLTNLSKMPACNIMLLGAQRKTLSGFSSTSVLPHTGYIYHSDIVQSLPPDLRRKAARLVAAKCTLAARVDSFHESTEGKVGYELKDEIERKFDKWQEPPPVKQVKPLPAPLDGQRKKRGGRRYRKMKERLGLTEIRKQANRMSFGEIEEDAYQEDLGFSLGHLGKSGSGRVRQTQVNEATKARISKTLQRTLQKQSVVYGGKSTIRDRSSGTASSVAFTPLQGLEIVNPQAAEKKVAEANQKYFSSMAEFLKVKGEKSGLMST [L107V]

Variants of: B3
Conditions: with xiap_human XIAP

Row | effect of a mutation on the interaction | Variant
7 | disrupting interaction strength | MKSQGQHWYSSSDKNCKVSFREKLLIIDSNLGVQDVENLKFLCIGLVPNKKLEKSSSASDVFEHLLAEDLLSEEDPFFLAELLYIIRQKKLLQHLNCTKEEVERLLPTRQRVSLFRNLLYELSEGIDSENLKDMIFLLKDSLPKTEMTSLSFLAFLEKQGKIDEDNLTCLEDLCKTVVPKLLRNIEKYKREKAIQIVTPPVDKEAESYQGEEELVSQTDVKTFLEALPQESWQNKHAGSNGNRATNGAPSLVSRGMQGASANTLNSETSTKRAAVYRMNRNHRGLCVIVNNHSFTSLKDRQGTHKDAEILSHVFQWLGFTVHIHNNVTKVEMEMVLQKQKCNPAHADGDCFVFCILTHGRFGAVYSSDEALIPIREIMSHFTALQCPRLAEKPKLFFIQACQGEEIQPSISIEADALNPEQAPTSLQDSIPAEADFLLGLATVPGYVSFRHVEEGSWYIQSLCNHLKKLVPRHEDILSILTAVNDDVSRRVDKQGTKKQMPQPAFTLRKKLVFPVPLDALSL [V410I]
8 | disrupting interaction strength | MKSQGQHWYSSSDKNCKVSFREKLLIIDSNLGVQDVENLKFLCIGLVPNKKLEKSSSASDVFEHLLAEDLLSEEDPFFLAELLYIIRQKKLLQHLNCTKEEVERLLPTRQRVSLFRNLLYELSEGIDSENLKDMIFLLKDSLPKTEMTSLSFLAFLEKQGKIDEDNLTCLEDLCKTVVPKLLRNIEKYKREKAIQIVTPPVDKEAESYQGEEELVSQTDVKTFLEALPQESWQNKHAGSNGNRATNGAPSLVSRGMQGASANTLNSETSTKRAAVYRMNRNHRGLCVIVNNHSFTSLKDRQGTHKDAEILSHVFQWLGFTVHIHNNVTKVEMEMVLQKQKCNPAHADGDCFVFCILTHGRFGAVYSSDEALIPIREIMSHFTALQCPRLAEKPKLFFIQACQGEEIQPSVSIEADALNPEQAPTSLQDSIPAEADFLLGLATVPGYVSFRHVEEGSWYIQSLCNHLKKLVPRHEDILSILTAVNDDVSRRVDKQGTKKQMLQPAFTLRKKLVFPVPLDALSL [P501L]

— IntAct's records for PubMed 25910212
